Assay results reported in US20020081293A1.

Columns and labels:
[1] = target: human factor D purified from human serum (human) (UniProt P00746); assay: SPR (BIAcore), MAb captured by rabbit anti-mouse IgG, factor D as analyte
[2] = target: human factor D purified from human serum (human) (UniProt P00746); assay: SPR (BIAcore), factor D amine-coupled to the chip, MAb 166-32 as analyte
[3] = target: human factor D purified from human serum (human) (UniProt P00746); assay: cell-based or functional assay
[4] = target: dog factor D (in serum) (dog); assay: cell-based or functional assay; settings: scale: times less effective than on human factor D

UniProt P00746, sequence (P00746 26-253): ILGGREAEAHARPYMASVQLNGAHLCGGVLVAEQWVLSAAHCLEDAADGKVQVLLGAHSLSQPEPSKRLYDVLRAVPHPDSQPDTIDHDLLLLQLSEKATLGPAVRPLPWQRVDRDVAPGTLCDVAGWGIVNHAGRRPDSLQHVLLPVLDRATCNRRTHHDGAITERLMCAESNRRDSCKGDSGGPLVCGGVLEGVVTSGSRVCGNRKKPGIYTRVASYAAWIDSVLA

monoclonal antibody 166-32
Kd [1]: < 0.1 nM
koff [1]: 0.00011 s⁻¹
kon [1]: > 1e+06 M⁻¹ s⁻¹
Kd [2]: 0.16 nM
koff [2]: 7.6e-05 s⁻¹
kon [2]: 460000 M⁻¹ s⁻¹
inhibition of factor D dependent hemolysis of unsensitized rabbit RBCs (factor D depleted human serum with 0.1 µg/ml supplemented factor D) [3]: 0.3 µg/mL
molar ratio for complete inhibition of alternative complement activity in extracorporeal circuit plasma (18 µg/ml MAb) (molar ratio (MAb : factor D)) [3]: 1.5
molar ratio for inhibition of factor D dependent hemolysis (molar ratio (MAb 166-32 to factor D)) [3]: 0.5
neutralization of dog factor D in hemolytic assays, against human factor D [4]: 10
